In article PMC3651167:

Biological target: wild-type rabbit PrP 121–230 (rabbit)
Assay: SEC

Chain of wild-type rabbit PrP 121–230 (domain or fragment) (Q95211 119-229 limits assumed): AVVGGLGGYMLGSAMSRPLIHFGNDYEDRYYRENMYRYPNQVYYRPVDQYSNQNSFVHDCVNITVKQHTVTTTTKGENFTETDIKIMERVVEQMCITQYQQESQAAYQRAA

Work on “wild-type rabbit PrP 121–230 (domain or fragment)” yielded a percent octamer after 4 hours of 33% and a stoichiometry N of 8.
